In US10138283 (AMBRX, dated 2018):
Read-outs that look alike come from different tables or passages of the source. Blank lines part the entries; values can stand above or below the molecule they belong to. [ ]: non-standard residue; d: D form. Phe(4-Ac) = CC(=O)c1ccc(C[C@H](N)C(=O)O)cc1

Legend:
Test in all cases: cell-based or functional assay
[1] = molecular target: T1, G-CSF receptor on M-NFS60 cells (UniProt P40223 26-837, limits assumed)
T1 sequence (looked up): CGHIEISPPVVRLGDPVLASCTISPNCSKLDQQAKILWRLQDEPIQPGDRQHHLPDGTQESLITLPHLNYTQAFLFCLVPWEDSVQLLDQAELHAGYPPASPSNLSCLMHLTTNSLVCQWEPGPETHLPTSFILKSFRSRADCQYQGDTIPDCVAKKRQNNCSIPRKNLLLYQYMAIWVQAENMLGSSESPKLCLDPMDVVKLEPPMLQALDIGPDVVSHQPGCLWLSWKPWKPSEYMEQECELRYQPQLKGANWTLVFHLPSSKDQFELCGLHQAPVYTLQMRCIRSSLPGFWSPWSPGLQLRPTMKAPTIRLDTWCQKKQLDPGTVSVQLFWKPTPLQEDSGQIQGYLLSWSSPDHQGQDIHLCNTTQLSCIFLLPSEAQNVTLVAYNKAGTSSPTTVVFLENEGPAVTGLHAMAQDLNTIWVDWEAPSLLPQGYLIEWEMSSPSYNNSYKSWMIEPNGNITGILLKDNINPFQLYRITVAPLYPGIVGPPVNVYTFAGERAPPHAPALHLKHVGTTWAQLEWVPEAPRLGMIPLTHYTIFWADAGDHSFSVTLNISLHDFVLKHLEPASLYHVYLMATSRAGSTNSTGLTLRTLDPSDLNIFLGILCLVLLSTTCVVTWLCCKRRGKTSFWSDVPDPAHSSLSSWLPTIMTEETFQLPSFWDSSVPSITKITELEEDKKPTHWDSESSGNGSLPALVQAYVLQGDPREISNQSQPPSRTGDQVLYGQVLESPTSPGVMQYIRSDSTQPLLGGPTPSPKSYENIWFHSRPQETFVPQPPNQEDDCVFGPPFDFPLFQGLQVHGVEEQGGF

[2] = molecular target: T1, G-CSF receptor on M-NFS60 cells; remark: listed apart in the source
[3] = molecular target: T1, G-CSF receptor on M-NFS60 cells; remark: listed apart in the source
[4] = molecular target: T1, G-CSF receptor on M-NFS60 cells; remark: listed apart in the source
[5] = molecular target: T1, G-CSF receptor on M-NFS60 cells; remark: listed apart in the source

- M-NFS60 proliferation assay, Avg EC50 [ng/ml] [1]: 0.025 ng/mL
- M-NFS60 proliferation assay, Fold Diff EC50 [X] [1]: 1 fold
Molecule: Neupogen (filgrastim) (from UniProt P09919 31-204) (ligand)

- M-NFS60 proliferation assay, Avg EC50 Values [3]: 0.15 ng/mL
B4: 20k PEG-bS62 (bG-CSF S62pAF, 20K PEG) (ligand)
chain: MTPLGPARSLPQSFLLKCLEQVRKIQADGAELQERLCAAHKLCHPEELMLLRHSLGIPQAPL[Phe(4-Ac)](PEG 20 kDa)SCSSQSLQLTSCLNQLHGGLFLYQGLLQALAGISPELAPTLDTLQLDVTDFATNIWLQMEDLGAAPAVQPTQGAMPTFTSAFQRRAGGVLVASQLHRFLELAYRGLRYLAEP

- M-NFS60 proliferation assay, Fold Diff EC50 [X] [4]: 1 fold
- M-NFS60 proliferation assay, Avg EC50 [ng/ml] [5]: 0.053 ng/mL
B6: wild-type bovine G-CSF (ligand)
chain: MTPLGPARSLPQSFLLKCLEQVRKIQADGAELQERLCAAHKLCHPEELMLLRHSLGIPQAPLSSCSSQSLQLTSCLNQLHGGLFLYQGLLQALAGISPELAPTLDTLQLDVTDFATNIWLQMEDLGAAPAVQPTQGAMPTFTSAFQRRAGGVLVASQLHRFLELAYRGLRYLAEP

Further lines, the molecule ahead of its results:

Molecule: Neulasta (pegfilgrastim) (from UniProt P09919 31-204) (ligand)
- M-NFS60 proliferation assay, Avg EC50 [ng/ml] [1]: 0.077 ng/mL
- M-NFS60 proliferation assay, Fold Diff EC50 [X] [1]: 3.2 fold

B1: 20k PEG-bL3 (bG-CSF L3pAF, 20K PEG) (ligand)
chain: TP[Phe(4-Ac)](PEG 20 kDa)GPARSLPQSFLLKCLEQVRKIQADGAELQERLCAAHKLCHPEELMLLRHSLGIPQAPLSSCSSQSLQLTSCLNQLHGGLFLYQGLLQALAGISPELAPTLDTLQLDVTDFATNIWLQMEDLGAAPAVQPTQGAMPTFTSAFQRRAGGVLVASQLHRFLELAYRGLRYLAEP
modifications: not fully specified (N-terminus)
- M-NFS60 proliferation assay, Avg EC50 Values [2]: 0.477 ng/mL

B2: 20k PEG-bR7 (bG-CSF R7pAF, 20K PEG) (ligand)
chain: MTPLGPA[Phe(4-Ac)](PEG 20 kDa)SLPQSFLLKCLEQVRKIQADGAELQERLCAAHKLCHPEELMLLRHSLGIPQAPLSSCSSQSLQLTSCLNQLHGGLFLYQGLLQALAGISPELAPTLDTLQLDVTDFATNIWLQMEDLGAAPAVQPTQGAMPTFTSAFQRRAGGVLVASQLHRFLELAYRGLRYLAEP
- M-NFS60 proliferation assay, Avg EC50 Values [3]: 0.348 ng/mL

B3: 20k PEG-bR166 (bG-CSF R166pAF, 20K PEG) (ligand)
chain: MTPLGPARSLPQSFLLKCLEQVRKIQADGAELQERLCAAHKLCHPEELMLLRHSLGIPQAPLSSCSSQSLQLTSCLNQLHGGLFLYQGLLQALAGISPELAPTLDTLQLDVTDFATNIWLQMEDLGAAPAVQPTQGAMPTFTSAFQRRAGGVLVASQLHRFLELAY[Phe(4-Ac)](PEG 20 kDa)GLRYLAEP
- M-NFS60 proliferation assay, Avg EC50 Values [3]: 0.363 ng/mL

B5: bG-CSF T133pAF-20K PEG (ligand)
chain: MTPLGPARSLPQSFLLKCLEQVRKIQADGAELQERLCAAHKLCHPEELMLLRHSLGIPQAPLSSCSSQSLQLTSCLNQLHGGLFLYQGLLQALAGISPELAPTLDTLQLDVTDFATNIWLQMEDLGAAPAVQP[Phe(4-Ac)](PEG 20 kDa (hydroxylamine/oxyamino PEG))QGAMPTFTSAFQRRAGGVLVASQLHRFLELAYRGLRYLAEP
- M-NFS60 proliferation assay, Fold Diff EC50 [X] vs. WT bG-CSF (batch NK2) [4]: 5.1 fold
- M-NFS60 proliferation assay, Avg EC50 Values (batch NK1) [3]: 0.258 ng/mL
- M-NFS60 proliferation assay, Avg EC50 [ng/ml] (batch NK2) [5]: 0.27 ng/mL
